According to IntAct's records for PubMed 16648845:

B1: Serine/threonine-protein kinase Nek2 (Homo sapiens), P51955 (parent)
chain: MPSRAEDYEVLYTIGTGSYGRCQKIRRKSDGKILVWKELDYGSMTEAEKQMLVSEVNLLRELKHPNIVRYYDRIIDRTNTTLYIVMEYCEGGDLASVITKGTKERQYLDEEFVLRVMTQLTLALKECHRRSDGGHTVLHRDLKPANVFLDGKQNVKLGDFGLARILNHDTSFAKTFVGTPYYMSPEQMNRMSYNEKSDIWSLGCLLYELCALMPPFTAFSQKELAGKIREGKFRRIPYRYSDELNEIITRMLNLKDYHRPSVEEILENPLIADLVADEQRRNLERRGRQLGEPEKSQDSSPVLSELKLKEIQLQERERALKAREERLEQKEQELCVRERLAEDKLARAENLLKNYSLLKERKFLSLASNPELLNLPSSVIKKKVHFSGESKENIMRSENSESQLTSKSKCKDLKKRLHAAQLRAQALSDIEKNYQLKSRQILGMR

Variants of: B1
Conditions: with cdc27_human CDC27, P30260
Chain of cdc27_human CDC27, P30260 (P30260 whole entry): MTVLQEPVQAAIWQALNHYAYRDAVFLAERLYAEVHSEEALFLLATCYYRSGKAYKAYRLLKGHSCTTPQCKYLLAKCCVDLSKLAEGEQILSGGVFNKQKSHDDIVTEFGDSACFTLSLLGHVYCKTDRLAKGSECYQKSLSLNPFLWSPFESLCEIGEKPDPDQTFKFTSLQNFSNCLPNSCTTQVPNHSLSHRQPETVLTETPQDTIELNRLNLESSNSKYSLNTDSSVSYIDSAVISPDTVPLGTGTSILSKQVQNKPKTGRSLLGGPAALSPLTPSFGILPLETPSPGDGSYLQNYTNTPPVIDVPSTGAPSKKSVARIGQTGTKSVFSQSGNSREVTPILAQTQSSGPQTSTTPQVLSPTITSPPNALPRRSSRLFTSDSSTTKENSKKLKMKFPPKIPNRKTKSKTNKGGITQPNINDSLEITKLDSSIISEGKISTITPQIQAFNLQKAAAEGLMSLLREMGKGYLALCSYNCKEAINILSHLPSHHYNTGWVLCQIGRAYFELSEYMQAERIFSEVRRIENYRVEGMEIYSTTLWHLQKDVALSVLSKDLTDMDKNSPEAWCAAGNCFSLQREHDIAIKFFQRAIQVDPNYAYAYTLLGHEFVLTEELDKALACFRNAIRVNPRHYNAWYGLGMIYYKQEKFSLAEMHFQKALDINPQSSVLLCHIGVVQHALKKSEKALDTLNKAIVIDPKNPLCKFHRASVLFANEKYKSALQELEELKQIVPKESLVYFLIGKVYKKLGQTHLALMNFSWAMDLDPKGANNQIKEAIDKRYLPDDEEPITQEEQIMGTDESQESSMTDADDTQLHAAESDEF

| Variant | effect of a mutation on the interaction |
| --- | --- |
| K391A;E392A;N393A;N399A | decreasing interaction |
